Measurements from the nanobody polyreactivity screen of Harvey et al. (2022).

assay: yeast display, Sf9 membrane polyspecificity reagent, FACS + sequencing; frameworks hold sequencing errors
In short: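 Galactose-induced (36–48 hours) yeast carrying a synthetic nanobody display library were exposed to 10% biotinylated, detergent-solubilized Sf9 membrane reagent at 4 °C for 1 hour. FACS followed streptavidin microbead enrichment, using low and high (top ~1%) gates for expression (anti-HA) and reagent binding (streptavidin). Colony PCR, MiSeq 2 × 250 sequencing and CDR-length filtering followed. Labels for polyreactivity reflect the gate of origin.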

| Sequence | polyreactivity (PSR sort gate) |
| --- | --- |
| QVQLVESGGGLVQAGGSLSLSCAASGLTFQEYAMRWYRQAPGKERELVAAISWSGGSTYYADSVKGRFTISRDNAKNTVYLQMNSLKPEDTAVYYCAAEAYEEYITGWYAYDYWGQGTQVTVSS | high polyreactivity |
| QVQLVESGGGLVQAGGSLSLSCAASGNTFPYYAMGWYRPAPGKERELVAAIRAGGGSTYYADSVKGRFTISRDNAKNTVYLQMNSLKPEDTAVYYCNADSDYNQYYLAVIHSILDYWGHGTQVTVSS | low polyreactivity |
| QVQLVESGGGLVQAGGSLSLSCAASGPTFTQNVMGWYRQAPGKERELVAGISSGDITNYADSVKGRFTISRDNAKNTVYLQMNSLKPEDTAVYFCTYYGKSGGYRYTYYYWGQGTQVTVSS | high polyreactivity |
| QVQLVESGGGLVQAGGSLSLSCAASGRIFAYYAMGWYRQAPGKERELVAAISGGGGSTYYADSVKGRFTISRDNAKNTVYLQMNSLKPEDTAVYYCAARYTVYSATGRYYYWGQGTQVTVSS | high polyreactivity |
| QVQLVESGGGLVQAGGSLSLSCAASGRIFPTYTMGWYRQAPGKERELVAAINRGGGSTYYADSVKGRFTISRDIAMNTVYLQMYSLKAEDTAVYYCNARTYYRSYGYDYCGQGTQVTVSS | low polyreactivity |
| QVQLVESGGGLVQAGGSLSLSCAASGRIFRRYAMGWYRQAPGKEREFVAAISYGGGSTYYADSVKGRFTISRDNAKNTVYLQMNSLKPEDTAVYYCNADVPKSLLLYYPWGYGYWGQGTQVTVSS | low polyreactivity |
| QVQLVESGGGLVQAGGSLSLSCAASGRIFVRNSMGWYRQEPGKETELVADITNGGSTNYADSVKGRFTISRDNAKNTVYLQMNSQKPEDTAVYYCAADTLGVYDGDYWGQGTQVTVSS | low polyreactivity |
| QVQLVESGGGLVQAGGSLSLSCAASGRIFVRNTMGWYRQAPGKERELVATISRRGGITYYADSVKGRFTISRDNAKNTVYLQMNSLKPEDTAVYYCAAESYSFWLYDYCGQGTQVTVSS | high polyreactivity |
| QVQLVESGGGLVQAGGSLSLSCAASGRIFYKYAMGWYRQAPGKESELVAAINTSGGRTYYADSVKGRFTISRDNAKNTVYLQMNSLKPEDTAVYYCKAVGSAYTAYDYWGQGTQVTVSS | high polyreactivity |
| QVQLVESGGGLVQAGGSLSLSCAASGRIFYRNAMGWYRQAPGKERELVAGITRGGSTNYADSVKGRFTISRDNAKNTVYLQMNSLKPEDTAVYYCAKAIPAKFYSEAGYDYWGQGTQVTVSS | low polyreactivity |
| QVQLVESGGGLVQAGGSLSLSCAASGRIFYRYAMGWYRQAPVKERELVAAISGSVGSTYADSVKGRFTISRDNAKNTVYLQMISLKPEDTAVYYCARETYRRYGAYDYWGQGTQVTVSS | low polyreactivity |
| QVQLVESGGGLVQAGGSLSLSCAASGRIFYVNTMGWYRQAPGKERELVATISSAASTNYADSVKGRFTISRDNAKNTVYLQMNSLKPEDTAVYYCNASRLSRLSALSGFYSWGQGTQVTVSS | low polyreactivity |
| QVQLVESGGGLVQAGGSLSLSCAASGRNFAYYAMGWYRQAPGKERELVAGISQRGSRTYYADSVKGRFTISRDNAKNTVYLQMNSLKPEDTAVYYCAARDRRSVTMDYWGQGTQVTVSS | high polyreactivity |
| QVQLVESGGGLVQAGGSLSLSCAASGRNFTIYAMGWYIQAPGKEREMVAGITRSGGRTYYADSVKGRFTISRDNAKNTVYLQMNSLKPEDTAVYYCNRVFYSGYRGQGHSYESWGQGTQVTVSS | high polyreactivity |
| QVQLVESGGGLVQAGGSLSLSCAASGRTFGAYAMGWYRQAPGKERELVATITVSGGSTYYADSVKGRFTISRDNAKNTVYLQMNSLKREDTAVYYCAAEWYPYPWGYGYWGQGTQVTVSS | low polyreactivity |
| QVQLVESGGGLVQAGGSLSLSCAASGRTFSANTMGWSRQAPGKERELVAAISKSGGSTYYADSVKGRFTISRDNAKNTVYLQMNSLKPEDTAVYYCAARTSGYWYSYGSWGQGTQVTVSS | high polyreactivity |
| QVQLVESGGGLVQAGGSLSLSCAASGRTFWLNSMGWYRQAPGKERELVATISSSSGSTTYADSVKGRFTISRDNAKNTVYLQMNSLKPEDTAVYYCAADWSDDVPGYDYWGQGTQVTVSS | low polyreactivity |
| QVQLVESGGGLVQAGGSLSLSCAASGRTFYRNAMGWYRQAPGKERELVAAISSDDSTNYADSVKGRFTISRDNAKNTVYLQMNSLKPEDTAVYYCNADYYYGYEYDYWGQGTQVTVSS | low polyreactivity |
| QVQLVESGGGLVQAGGSLSLSCAASGRTIAYYAMGWDRQAPGKEMEFVAAISSTGTSTYYADSVKGRFTISRDNAKNTVYLQMNSLKPEDTGVYYCNARVATYRLHSKFYYWGQRTQVTVSS | high polyreactivity |
| QVQLVESGGGLVQAGGSLSLSCAASGRTYYYNAMGWYRQAPGKERELVAAITFSGGTTSYADSEKGRFTISRDNAKNTVYLQMNRLKPEDTEVYYCAARGYWGQGTQVTVSW | high polyreactivity |
| QVQLVESGGGLVQAGGSLSLSCAASGSIFASNTMGWYRPAPGKERELVAGITKIGSSTYYADSVKGRFTISRDNAKNTVYLQMNSLKPEDTAVYYCNAYGPNIYSSRYDYWGQGTQVTVSS | low polyreactivity |
| QVQLVESGGGLVQAGGSLSLSCAASGSIFKFNTMGWSRQAPRKERELVAAISRSGGSTYYADSVKGRFTISRDNAKNNVYLQMNSLKPEDTAVYYCAARQFSGPYVRYGYWGQGTQVSVSS | high polyreactivity |

| Sequence | polyreactivity (PSR sort gate) |
| --- | --- |
| QVQLVESGGGLVQAGGSLSLSCAASGSIFPHYAMGWYRQAPGKERELVAAISRSGTSTYYADSVKGRFTISRDNAKNTVYLQMNSLNPEDTAVYYCATGYRRDHDDYWGQGTQVTVSS | high polyreactivity |
| QVQLVESGGGLVQAGGSLSLSCAASGSIFWYNAMGWYRQAPGKERELVAGITSGGDTNYADSVKGRFTISRDNAKNTFYLQMNSLKPEDTAVYYCNTPSGPGNVGYYRRKWYGYWGQGTQVSVSS | low polyreactivity |
| QVQLVESGGGLVQAGGSLSLSCAASGSIFYYNAMGWYRQAPGKERELVAAITSSAITNYADSVKGRFTISRDNAKNTVYLQMKSRKPEDTAVYYCAGRITTRPRSTRKRVWVDYWGQGTQVTVSS | high polyreactivity |
| QVQLVESGGGLVQAGGSLSLSCAASGSTFDYYAMGWYRQAPGKEWELVADITYSGGSTYYADSVKGRFTISRDNAKNTVYLQMNSLKPEDTAVYYCNAYYTVYTRYDYWGQGTQVTVSS | high polyreactivity |
| QVQLVESGGGLVQAGGSLSLSCAASGSTFNHYAMGWYSPAPGKERELVAAISSRGGSTHYADSVKGRFTISRDNAKNTVYLQMNSLKPEDTAVYDCARDTDPQSSRSSDYDYWGQGTQVTVSS | low polyreactivity |
| QVQLVESGGGLVQAGGSLSLSCAASGSTFRHYAMGGYRQAPGKERELVAAISSRGGSTHYADSVKGRFTISRDNAKNTVYLQMNSLKPEDTAVYYCARDTDTQSSRSSDYDYWGQGTQVNVSS | low polyreactivity |
| QVQLVESGGGLVQAGGSLSLSCAASGSTFWVYAMGWYRQAPGKERELVATISRGGSTNYADSVKGRFTISRDNAKNTVYLQMNSLKPEDTAVYYCAAPRFYGYGYEYWGQGTQVTVSS | low polyreactivity |
| QVQLVESGGGLVQAGGSLSLSCAASGSTFYFNAMGWYRQAPGKERELVATIRSGDSTYYADSVKGRFTISRDNAKNTVYLQMNRLKPEDTAVYYCAAVSTYFSSTFTEYDYWGQGTQVTVST | low polyreactivity |
| QVQLVESGGGLVQAGGSLSLSCAASGSTFYNYAMGWYRQAPGKERELVASITWNGGSTYYADSVKGRFTISRDNAKNTVYLQMNSLKPEDTAVYYCAADWTWTYPYDYWGQGTQVTVSS | low polyreactivity |
| QVQLVESGGGLVQAGGSLSLSCAASGSTYLDYTMGWYIQAPGKERELVAVISYRAGSTYYADSVKGRFTISRDNAKNTVYLLMHSLKPEDTAVYYCNADYYNYWRRRRYVWYESWGQGTQVTVSS | low polyreactivity |
| QVQLVESGGGLVQAGGSLSLSCAASGYIFSSNTMGWYRQAPGKERELVAGITASATITYYADSVKGRFTISRDNAKNTVYLQMNSLKPEDTAVYYCAADPVLGVFKFEYWGQGTQVTVSS | low polyreactivity |
| QVQLVESGGGLVQAGGSLSLSCAASGYIFVPYAMGWYRQAPGKERELVAAISWSTGTTYYADSVKGRFTISRDNAKNTVYLQMNSLKPEDTAVYYCAAEGYDWIYLYYGLGYWGQGTQVTVSS | low polyreactivity |
| QVQLVESGGGLVQAGGSLSLSCAASVSTSLSYDMGWYRQAPGKERELVASITSSGGSTYYADSVKGRFTIARDNAKNTVYLQMKSLKPEDTAVYYCNARSYIYPFSPTSYYRYYWGQGTQVTVSS | high polyreactivity |
| QVQLVESGGGLVQAGGSLSLSCAASVYIFLVYAMGWYRQAPGKERELVAAISSGGSTYYADSVKGRFTISRDNAKNTVYLQMNSLKPEDTAVYYCAKAGLALYAFRDDYWGQGTQVTVSS | low polyreactivity |
| QVQLVESGGGLVQAGGSLSLSCAATGRIFGPYAMGWYRQAPGKERELVATINSGGSTHYADSVKGRFTISRDNAKNTVYLQMNSLKPEDTAVYYCAATSAYGRYRYYYWGQGTQVTVSS | high polyreactivity |
| QVQLVESGGGLVQAGGSLSLSCASSANIFGVYAKGWYRQPPGKERELVAAIRYSTVSTYYADSVKGRFTISRDNAKNTVYLQLHSLKPEDTAVFYCAAQRRLYLPGHYYYWGQGTQVTVSS | high polyreactivity |
| QVQLVESGGGLVQAGGSLSLSCDASGSIFRSNAMGWYRQAPGKERELVAAISRSGGRTYYADSVKGRFTISRDNAKNTVYLQMNSLKPEDTAVYYCAAQVVRSLKYEYWGQGTQVTVSS | high polyreactivity |
| QVQLVESGGGLVQAGGSLSLSFAASGSTFERYAMGWSRQAPGKERELVAAIRASGVRTYYADSVKGRFTISRDNAKNTVNLQMNSLKPEDTAVYYCAAELQRYWGRLYYYWGQGTQVSVSS | high polyreactivity |
| QVQLVESGGGLVQAGGSLSLSSAATGSNFGRNAMGWYRQATGKEREFVAAISQRGGRTYYSDSVKGRFTISRDNAKNTVYLQMNSLKPEETAVYYCAATYTRVPNRFYYWGQGTQVTVSS | high polyreactivity |
| QVQLVESGGGLVQAGGSPRLSCAASGRTFAEYPMGWYRQAPGKERELVAGISWSGGSTYYADSVKGRFTISRDTAKNTVYLQMNSMKPDDTAVYYCAARGWKRGYYIGHYYYWGQGTQVTVSS | low polyreactivity |
| QVQLVESGGGLVQAGGSPRLSCAASGRTFVFKAMGWYRQAPAKERELVAAITDTTGSTYYADSVKGRFTISRDNAKNTVYLQMNSLKPEDTAVYYCNARVYRPFYYWGQGTQVTVSS | low polyreactivity |
